Consider three substances from article PMC4951694.

Holding throughout (experiment): ITC; 10 μM β3 peptide in the sample cell titrated with αIIb peptide; bicelles of 43 mM DHPC, 17 mM POPC, 25 mM NaH2PO4/Na2HPO4 pH 7.4, 28 °C; stoichiometry fixed at 1:1
For orientation: In ITC the heat of successive injections is recorded.

Test [1] concerns the target integrin β3(A711P) TM peptide (human) (UniProt P05106).
Test [2] deals with integrin β3(A711P/L712A) TM peptide (human) (UniProt P05106).
Test [3] concerns the target integrin β3(A711P/W715Y) TM peptide (human) (UniProt P05106).
In test [4] the target is integrin β3(L712A) TM peptide (human) (UniProt P05106).
The target in test [5] is integrin β3(W715Y) TM peptide (human) (UniProt P05106).
Test [6] concerns the target integrin β3 TM peptide (human) (UniProt P05106).

For the substance “integrin αIIb TM peptide (from UniProt P08514 989-1029)”, the KXY worked out at 12700 in test [1]; 4200 in test [2]; 2200 in test [3]; 1900 in test [4]; 1300 in test [5]. The dH in test [1] is -16.9 kcal/mol; in test [2] it was -12.8 kcal/mol; in test [3], -14.4 kcal/mol; in test [4], -12 kcal/mol; in test [5], -14.2 kcal/mol.
In test [6], “integrin αIIb(G972A) TM peptide (from UniProt P08514 989-1029)” had a KXY of 1080 and a dH of -14.2 kcal/mol. Moreover, in test [1], the KXY was found to be 5500 and the dH is -16.2 kcal/mol.
In test [1], “integrin αIIb(R995A) TM peptide (from UniProt P08514 989-1029)” gave a KXY of 4000 and a dH of -5.6 kcal/mol.
